{"source": "paper PMC5708776", "about": "“Crystal structure of a tripartite complex between C3dg, C-terminal domains of factor H and OspE of Borrelia burgdorferi” (PLoS ONE, 2017)", "binders": {"B1": {"name": "C-terminal domains 19-20 of human factor H (FH19-20), wild type (domain or fragment)", "chain": "KDSTGKCGPPPPIDNGDITSFPLSVYAPASSVEYQCQNLYQLEGNKRITCRNGQWSEPPKCLHPCVISREIMENYNIALRWTAKQKLYSRTGESVEFVCKRGYRLSSRSHTLRTTCWDGKLEYPTCAKR", "notes": "human complement factor H, domains (SCRs) 19-20; also called C-terminus of human factor H"}}, "biological_target": "T1, C3dg (residues 955 to 1303 of complement C3), C1010A (UniProt P01024 955-1303, C1010A)", "T1 construct": "complement C3, C3dg fragment, residues 955-1303; C1010A prevents thioester formation; a second change (printed A1153E) was made to reverse a mutation of the original gene, so that the natural residue stands at 1153; The His6 tag was moved from the N-terminus to the C-terminus (TEV-His6) and removed with TEV protease; residues of the TEV site probably remain at the C-terminus; also called C3dg …", "T1 sequence (P01024 955-1303 C1010A)": "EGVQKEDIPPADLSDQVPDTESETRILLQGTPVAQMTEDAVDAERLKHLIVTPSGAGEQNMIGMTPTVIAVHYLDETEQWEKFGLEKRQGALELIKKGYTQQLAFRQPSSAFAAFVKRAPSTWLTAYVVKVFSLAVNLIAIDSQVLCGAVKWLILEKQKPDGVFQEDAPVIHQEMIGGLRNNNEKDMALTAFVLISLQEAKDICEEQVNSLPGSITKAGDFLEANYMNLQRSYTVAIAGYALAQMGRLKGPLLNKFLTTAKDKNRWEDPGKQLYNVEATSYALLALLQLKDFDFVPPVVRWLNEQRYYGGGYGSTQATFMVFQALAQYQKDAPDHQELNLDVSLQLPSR", "test": "crystal structure; three purified proteins mixed at a 1:1:1 molar ratio before crystallisation at 20 °C (PEG 3350, Hepes pH 7.5 or Tris pH 8.5); 3.18 Å; three heterotrimers in the asymmetric unit", "conditions": "both partners purified", "data": [{"binder": "B1", "values": [{"measurement": "binding result", "result": "binds"}]}]}
